Patent US20110034670A1 (BOARD OF GOVERNORS FOR HIGHER EDUCATION STATE OF RHODE …, published 2011)
*1 amine or outer side, *2 acyl side, *3 side chain or, on linkers, in order; H or OH if unused. Where no end group is shown, it is not given here. [ ]: non-standard residue; d: D form. Phe(4-NHSO2CH3) = 4-(methylsulfonamido)phenylalanine, CS(=O)(=O)Nc1ccc(C[C@H](N[*:1])C(=O)[*:2])cc1; Phe(4-guanidino) = N=C(N)Nc1ccc(C[C@H](N)C(=O)O)cc1; pY = N[C@@H](Cc1ccc(OP(=O)(O)O)cc1)C(=O)O; Phe(4-Cl) = N[C@@H](Cc1ccc(Cl)cc1)C(=O)O; Phe(4-F) = N[C@@H](Cc1ccc(F)cc1)C(=O)O; Phe(4-I) = N[C@@H](Cc1ccc(I)cc1)C(=O)O; Phe(NH2) = aminophenylalanine; Phe(NO2) = nitrophenylalanine; Phe(CN) = cyanophenylalanine; Phe(N3) = azidophenylalanine; βAla = NCCC(=O)O

B1: ATP-βAla-pTyr-Glu-Glu-Ile-OH (1) (peptide)
peptide: {ATP}-[βAla][pY]EEI-OH
notes: also called compound 1; ATP-phosphopeptide conjugate 1
B2: 3-phenylpyrazolopyrimidine-peptide conjugate 43 (3-phenylpyrazolopyrimidine-YIYGSFK) (peptide)
peptide: YIYGSFK
modifications: not fully specified (N-terminus); also: short linker between the label and the N-terminus not given here

Each binder was assayed against Src tyrosine kinase (assay: steady-state kinetics, radioactive kinase assay; ATP-binding site of Src).
B1 showed a Ki of 1.7 µM.

These binders were tested against Src tyrosine kinase (assay: cell-based or functional assay).
With YIYGSFK(3‑phenylpyrazolopyrimidine) [3-phenylpyrazolopyrimidine-peptide conjugate 53] the “fold reduction of inhibitory potency compared to 43” value was 11 fold.
Cys-Ile-Tyr (not fully specified (N-terminus); also: short linker to N-terminus) [3-phenylpyrazolopyrimidine-peptide conjugate 45] was tested, and the “fold reduction of inhibitory activity compared to 42” value was about 145 fold.
For {3‑phenylpyrazolopyrimidine}-GCIYKYY [3-phenylpyrazolopyrimidine-peptide conjugate 54], the “fold reduction of inhibitory potency compared to 42” value was 21 fold.
In the case of Ac-YIYGSFK [Ac-YIYGSFK (41)], the “IC50, inhibition of polyE4Y phosphorylation (radioactive kinase assay)” value is reported as 570 µM.
For B2, the “IC50, inhibition of polyE4Y phosphorylation by active Src” value was 2.7 µM.
With Ac-CIYK[Phe(NO2)]Y [Ac-CIYKF(NO2)Y (62)] the “fold higher inhibitory potency versus 40” value was about 750 fold.

Biological target: Src tyrosine kinase
Test: cell-based or functional assay
Remark: another data set of the same source
For Ac-CI[Phe(NO2)]KY[Phe(NO2)] [Ac-CIF(NO2)KYF(NO2) (71)], the “IC50, inhibitory potency (Src kinase assay, polyE4Y phosphorylation)” value (from here on “IC50, inhibitory potency”) was 3.4 µM.
In the case of Ac-CYK[pY]Y [Ac-CYKpYY (84)], the “IC50, inhibitory potency” value is reported as over 100 µM.
In the case of Ac-CIYKY [Ac-CIYKY (82)], the “IC50, inhibitory potency” value is reported as over 100 µM.
With Ac-CIYK[Phe(NO2)][Phe(NO2)] [Ac-CIYKF(NO2)F(NO2) (70)] the “IC50, inhibitory potency” value was 5.6 µM.
Ac-CIYK[Phe(NO2)]YF [Ac-CIYKF(NO2)YF (65)] was tested, and the “IC50, inhibitory potency” value was 1 µM.
For IYKYY [IYKYY (81)], the “IC50, inhibitory potency” value was 211 µM.
Ac-CYK[Phe(4-Cl)]Y [Ac-CYKF(4-C1)Y (83)] was tested, and the “IC50, inhibitory potency” value was 39 µM.
For Ac-CI[Phe(NO2)]K[Phe(NO2)]Y [Ac-CIF(NO2)KF(NO2)Y (69)], the “IC50, inhibitory potency” value was 1.4 µM.

Biological target: Src tyrosine kinase
Test: cell-based or functional assay
Remark: another data set of the same source
For Ac-CIYK[Phe(4-I)]Y [Ac-CIYKF(4-I)Y (76)], the “IC50, inhibitory potency” value was 0.78 µM.
Ac-CIYK[Phe(4-Cl)]Y [Ac-CIYKF(4-C1)Y (75)] was tested, and the “IC50, inhibitory potency” value was 7.3 µM.
For YI[Phe(NO2)]GSFK [YIF(NO2)GSFK (86)], the “IC50, inhibitory potency” value was over 100 µM.
In the case of Ac-CIYKFY [Ac-CIYKFY (61)], the “IC50, inhibitory potency” value is reported as over 700 µM.
For Ac-CIYK[Phe(4-F)]Y [Ac-CIYKF(4-F)Y (74)], the “IC50, inhibitory potency” value was 26 µM.
With Ac-CIYK[Phe(4-guanidino)]Y [Ac-CIYKF(4-Guanidine)Y (73)] the “IC50, inhibitory potency” value was over 700 µM.
Ac-CI[Phe(NH2)]KYY [Ac-CIF(NH2)KYY (67)] was tested, and the “IC50, inhibitory potency” value was 760 µM.
For YIYGSFK [YIYGSFK (85)], the “IC50, inhibitory potency” value was over 100 µM.
Ac-CIYK[Phe(CN)]Y [Ac-CIYKF(CN)Y (78)] was tested, and the “IC50, inhibitory potency” value was 6 µM.
In the case of Ac-CIYK[Phe(4-NHSO2CH3)]Y [Ac-CIYKF(4-NHSO2CH3)Y (80)], the “IC50, inhibitory potency” value is reported as over 100 µM.
Ac-CIYK[Phe(N3)]Y [Ac-CIYKF(N3)Y (79)] was tested, and the “IC50, inhibitory potency” value was 2 µM.
In the case of Ac-CIYKY[Phe(NO2)] [Ac-CIYKYF(NO2) (66)], the “IC50, inhibitory potency” value is reported as 10.8 µM.
For CIYK[Phe(NO2)]Y [CIYKF(NO2)Y (77)], the “IC50, inhibitory potency” value was 3 µM.
For Ac-YI[Phe(NO2)]GSFK [Ac-YIF(NO2)GSFK (87)], the “IC50, inhibitory potency” value was over 100 µM.
In the case of Ac-CI[Phe(NO2)]KYY [Ac-CIF(NO2)KYY (64)], the “IC50, inhibitory potency” value is reported as 1.5 µM.
Ac-CIYK[Phe(NH2)]Y [Ac-CIYKF(NH2)Y (63)] was tested, and the “IC50, inhibitory potency” value was 93 µM.
In the case of Ac-CIYK[Phe(NO2)]Y [Ac-CIYKF(NO2)Y (62)], the “IC50, inhibitory potency” value is reported as 0.53 µM.
With Ac-CIYKY[Phe(NH2)] [Ac-CIYKYF(NH2) (68)] the “IC50, inhibitory potency” value was over 700 µM.
